Results: US20250340890, “DNA […] AS UNIVERSAL INHIBITORS OF SPIKE PROTEIN/HACE2 INTERACTIONS” (Bowling Green State University, published 2025)

Key:
[1] = molecular target: SARS-CoV-2 WT spike S2 domain (SARS-CoV-2, UniProt P0DTC2 P0DTC2:686-1213)
[2] = molecular target: SARS-CoV-2 WT spike S1S2 extracellular domain (SARS-CoV-2, UniProt P0DTC2)
SARS-CoV-2 WT spike S1 = SARS-CoV-2 WT spike S1 (SARS-CoV-2, UniProt P0DTC2 P0DTC2:14-685)
Lysozyme = Lysozyme (UniProt P00698 P00698:19-147)
PD-L1 = PD-L1 (UniProt Q9NZQ7 Q9NZQ7:19-238)
Chain of PD-L1 (Q9NZQ7 19-238, one chain of several): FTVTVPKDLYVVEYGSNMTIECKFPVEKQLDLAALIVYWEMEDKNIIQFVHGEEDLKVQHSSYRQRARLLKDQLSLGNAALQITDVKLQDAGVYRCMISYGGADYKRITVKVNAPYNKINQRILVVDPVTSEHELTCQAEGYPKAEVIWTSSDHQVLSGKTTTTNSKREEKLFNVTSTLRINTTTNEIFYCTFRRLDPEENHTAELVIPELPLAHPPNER

[3] = molecular target: Bovine serum albumin (BSA) (Bos taurus, UniProt P02769 P02769:25-607)
Chain of Bovine serum albumin (BSA) (P02769 25-607, one chain of several): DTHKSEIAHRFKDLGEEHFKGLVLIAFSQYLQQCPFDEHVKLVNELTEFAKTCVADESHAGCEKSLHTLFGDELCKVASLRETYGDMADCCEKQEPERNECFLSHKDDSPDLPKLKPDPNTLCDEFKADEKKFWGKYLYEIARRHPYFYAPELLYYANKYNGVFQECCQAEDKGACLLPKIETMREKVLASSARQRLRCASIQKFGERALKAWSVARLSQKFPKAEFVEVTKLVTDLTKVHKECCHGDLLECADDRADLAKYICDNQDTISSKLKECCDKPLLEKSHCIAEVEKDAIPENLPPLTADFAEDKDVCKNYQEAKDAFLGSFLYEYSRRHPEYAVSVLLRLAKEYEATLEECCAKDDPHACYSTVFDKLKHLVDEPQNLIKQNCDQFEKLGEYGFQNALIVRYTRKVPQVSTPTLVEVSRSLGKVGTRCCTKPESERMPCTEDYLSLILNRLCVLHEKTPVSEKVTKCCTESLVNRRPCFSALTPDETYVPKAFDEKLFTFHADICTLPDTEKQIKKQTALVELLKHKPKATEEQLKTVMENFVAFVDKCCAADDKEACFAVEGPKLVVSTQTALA

Chain of Lysozyme (P00698 19-147, one chain of several): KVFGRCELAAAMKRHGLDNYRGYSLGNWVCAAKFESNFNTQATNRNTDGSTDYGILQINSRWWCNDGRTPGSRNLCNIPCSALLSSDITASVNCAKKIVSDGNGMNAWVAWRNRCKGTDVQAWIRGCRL

Binder	binding result [1]	binding result [2]	binding result [3]	also measured
S2A1C1 (ssDNA) DNA: CAAGGAGCGACCAGAGGGGCGGTTTATCAACAACTCGCTCTGTACACCACTCTTTG	binds	–	–	–
CAAGGAGCGACCAGAGGCGGGTTCCTAGACTTGTACTCAGCCT (ssDNA) [S2A2C3]	binds	–	–	–
S2A1 (ssDNA) DNA: CAAGGAGCGACCAGAGGGGCGGTTTATCAACAACTCGCTCTGTACACCACTCTTTGTTGGCATCCTTCAGCCC	–	binds	–	–
S2A2 (ssDNA) DNA: CAAGGAGCGACCAGAGGCGGGTTCCTAGACTTGTACTCAGCCTTTACAGCTATGCCCTGGCATCCTTCAGCCC	–	binds	–	–
AGGCGGGTTCCTAGACTTGTACTCAGCCT (ssDNA) [S2A2C1]	–	–	no binding	binding result (SARS-CoV-2 WT spike S1): no binding; binding result (Lysozyme): no binding; binding result (PD-L1): no binding
A1C1 (ssDNA) DNA: CGGGACGACGACGGACATCGTGAGAAATGGTCGACCTTGTGTCTGTCGTCCCG	–	–	no binding	–
